Data published in publication PMC11294625, “The kinesin-3 KIF1C undergoes liquid-liquid phase separation for accumulation of specific transcripts at the cell periphery”.

Legend:
KIF1C(CC4+IDR)-mNG [1] = molecular target: T1, KIF1C(CC4+IDR)-mNG (Homo sapiens, UniProt O43896 785-1103); test: in vitro condensate recruitment (fluorescence microscopy); 15-60 nM RNA, 100 nM protein, 100 mM NaCl; selectively enriched in condensates; 100 nM KIF1C(CC4+IDR)-mNG in 100 mM NaCl buffer, no crowding agent; pH and temperature of the assay not given in the material; conditions: protein: recombinant; tags: C-terminal mNeonGreen; His-SUMO removed by TEV; chain copies: 2; label: 5'-Cy5; single strand
T1 sequence: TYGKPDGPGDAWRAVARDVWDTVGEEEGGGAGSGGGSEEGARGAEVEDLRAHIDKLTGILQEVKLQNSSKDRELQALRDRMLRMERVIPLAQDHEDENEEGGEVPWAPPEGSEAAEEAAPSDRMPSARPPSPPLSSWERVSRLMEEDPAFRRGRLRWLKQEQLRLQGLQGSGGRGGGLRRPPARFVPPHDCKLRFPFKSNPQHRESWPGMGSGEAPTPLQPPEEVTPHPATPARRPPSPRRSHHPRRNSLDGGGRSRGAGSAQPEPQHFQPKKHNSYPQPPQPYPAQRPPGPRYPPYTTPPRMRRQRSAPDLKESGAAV

KIF1C(CC4+IDR)-mNG [2] = molecular target: T1, KIF1C(CC4+IDR)-mNG; test: in vitro condensate recruitment (fluorescence microscopy); 120-600 nM RNA, 100 nM protein, 100 mM NaCl; enriched (condensates inhibited at uM RNA); 100 nM KIF1C(CC4+IDR)-mNG in 100 mM NaCl buffer, no crowding agent; pH and temperature of the assay not given in the material; conditions: protein: recombinant; tags: C-terminal mNeonGreen; His-SUMO removed by TEV; chain copies: 2; label: 5'-Cy5; single strand

Binder	binding result (KIF1C(CC4+IDR)-mNG [1])	binding result (KIF1C(CC4+IDR)-mNG [2])
GUGUGUGUGUGU (ssRNA, methylation at each nucleotide (printed mG/mU, probably 2'-O-methyl)) [GU-rich RNA oligo, Cy5-(GU)6]	binds	–
AAAAAAAAAAAAA (ssRNA, methylation at each nucleotide (printed mA, probably 2'-O-methyl)) [polyA RNA oligo, Cy5-A13]	–	binds
